Results from the supplement of paper PMC12455559.

Test: purified protein yield per well (BCA); higher = higher soluble expression
Procedure, shortened: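 Candidate enzymes were made in 2 mL autoinduction cultures of E. coli C41(DE3) with 100 µg/mL kanamycin, at 37 °C for 2 h and then 18 °C for 40 h, and purified with Ni-charged magnetic beads and SUMO protease cleavage. The Pierce Rapid Gold BCA kit gave purified protein yield per well. Values lower than 25 ug (0.1 mg/mL) are below the detection threshold.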

Row | Sequence | purified protein yield per well [µg]
1 | DSPYERGPDPTERSIEATRGPFSVSTISVSDFSTPGFGAANITYPTSRSEGTFGVVAISPGYTAGESTIAWLRPRIASQGFVVISFDTNSRTDFPSSRGDQLLAALDYVIEDSSVRDRVDGSRQAVMGHSMGGGGSLEAASDRRSIEAVVGLTPWNSDKTWSEVDAASLMIGAENDSVAPARTHAIPFYNSLTGAEDRAYLELDGASHLAPTFSNTEIAKYSISWLKRFVDDDDRYDQFLCPAPSTGFGSPLSDSRVSCPLG [DP098] | < 25
2 | MRSSVTQVPACKGAETSEARPRTGSRPVGLRAVVVAVVAGLIAALVSAQPVSARPAPARPGAAQDNPYERGPDPTVGSVAAQRGTFATAEMNVSPGNGFNGGKIYYPTDTSQGTWGAVAAVPGFTARWAAEGAWMGHWLASFGFVVIGIDTNSPNDYDTARGTQLLAALDYLTQKSPVRDRVDPDRLGVIGHSMGGGGAISAAVRRPSLKAAVPLAPFSPSQDLSTLRVPTMIMGARDDGTVTPSYLDGLYARTPAATQSAFIELTSGGHGFPTWGNSHVTRRMIPWLKIFIDNDTRYTQFLCPSPADRSNISRWQTKCPYVPPGGTTPPPSGGQVVGAGSARCLDVPSQTNGTQVRLWDCLDRAGQKWTRTEAAELRVHGGKCLDAEASGTSPGTRVVIWDCHGGQNQRWNIGTNGTITSTRSGLCLDAYNSGTANGTQVVLWNCNGGANQRWTFR [DP042] | < 25
3 | QSNPYQKGPDPTHASIEADGPYAVSTQALKGSGFGSGTVYSPNAAGSYALVAVCPGFVSAQSSIAQISRRLATHGFVVVTIDTNTIFDFPDSRSTQLLAALKAVAALSTGPAAGKIDTARQAVAGWSMGGGGTLLAAGSTPALKGAVAYAPWALNNNLKASKVPAAILGGTADIVAPPGIFADVFYKAIPAGSSKLLGIVKGADHFFSNTASQPASYTTVAWFKRFVDNDTRYGPFLNGDTRYSRFSYTGPF [TEP040] | < 25
4 | HAPAPQPVVVHHHAPFAVRTTVVPKTAVKAFGGGVIYTPQDTGKPVLGAVVITPGFTNTNADEKELGQLVASQGFVAFVIDTLDTGDLPAQRATEILAATDYLTGQSAVRSEVSAKDVGLIGYSFGGGGTMQAAQSRPSIKAAIGLMPFDVPPASDPHALYATYPKLTTPTLVITGQKDEVARPKDFGKPAYDSIPAGTPKQYLELKGLDHSAGEHAPVAAIRNAVTAFLKRYLDGNSAYAKFICPAPKVGGPISVSLSSCPKG [ESM155] | < 25
5 | AQQTILQESFNSSLGSFTSAGSVSVGSSGALMRGSAYSTDGRITSAAVSTQGLTNIVLSFTSATSGLDLGEAAIVSYSTNGSSYTTVSSERYATGSFTFNLGTAAANQSQLFLRFAIDASSTYETYAVDNIILTGDGEGGGTTCTTCIGPDPTVAALEAARGPFNTSSFGLSSWSVSGFGGGDIFYPTNAPAGPLAAIAICPGFLGTSETVDWWGPRLASHGFVVIVMDPNSVFDQPAQRATQLMACLDELEDQNNDSGSPIYGMVDSNRVGLMGHSMGGGGTLIATEDNPSVIKAAIPMAPWNMLSSNFSDITTPTLVIACEADLIAPVAQHARPFYDSIPSTVPKAFLEINNGDHLAVMNGDVFEDMLGKYGVAWMKVFLDNDQRYMQFLCGPDHESDWDISDYRSSCPY [DP024] | < 25
6 | QNPYERGPAPTTSSLEASRGPFSTSSFTVSRPSGYGAGTVYYPTNAGGTVGAIAIVPGFTARQSSINWWGPRLASHGFVVITIDTNSTLDQPASRSRQQLAALDQVATLARTSSSPIYNKVDTTRMGVMGWSMGGGGSLISAQNRPSLKAAAPQAPWNGSTSFGSVTVPTLIFACENDSIAPVGSHASPMYNSMTRNPKEFIEIDGGSHSCANSGNSNQALIGKKGVAWMKRFMDNDTRYTSFACANPNSTRVSDFRVARCS [ESM066] | < 25
7 | QVGPDPTSASLNATAGPFSVSTASVISPRGFGGGTIYYPTTTGRYGVVAISPGFTATQSSIAWLGRRLATHGLVVITMNTNSTYDQPSSRATQLMAALNYVVNSSSSTVRARVDSSKLAVAGHSMGGGGALIAAENNPTLKASLPLTPWNSSTNFSDVRVPTLIVGADGDSVASVSRHARPFYASLPSNTFKAYAELNGASHFTPNSTSTPIGRYGVAWMKRFVDADTRYSPFLCGAAHQSYATSLVFDRYSQNCPY [ESM125] | < 25
8 | MRSTSTTPTASSVSGAGAFAISSATVGGGNGFGSATIYFPTDTSQGTFGGLAVSPGFTETQSALRWWAQRLATHGFVVINISTNSTFDNPSSRATQLQNALNYLVNTSSVRTRVDRTRLGVSGHSMGGGGTLEAARNNTALQAAIPLMPWDQTKSFPGILTPTMIVAGQNDTVARPSSHAIPFYNSIPDSSEKVYLELAGAGHNASNSTNPTISLFGVSWAKRYIDNGTRYEQFICPGGGSGISSYRQT [ESM152] | < 25
9 | ADNPYERGPAPTNSSIEATRGPFAVSDTRVSSLVSGFGGGTIYYPTSTSSGTFGAVVISPGFTGTQSSIDWLGPRIASQGFVVFTIDTITIYDQPDSRASQLLAALDYLTQRSDVRSRIDASRLGVMGHSMGGGGTLRAAAQRPSLQAAIPLTGWHTTKNWSSVSVPTLVIGAESDSVAPVATHSEPFYTSLPSTLDKAYLELNNASHFAPNLPDTTIAKYSISWLKRFIDNDTRYEQFLCPGPGRSTQVEEYRNTCPNS [TEP025] | < 25
10 | AGNPHQRGPDPTPQSIVAEKGPFEVATAPAPAGNGFGGGTIYYPTDTSQGTFAGIAISPGFFGPQFSIDWYGPRLASQGFVVIAITTNALWDFPSQRADQLLAALKYLKQDSPAKDRLDGGRLGVMGHSMGGGGTMEAVLKDHSLKAAIPLTGWGITADYSGVQTPTMIIGAQFDVVAPDESYSIPFYKSLRPDLDKQFLQLAGGTHFSPNLPNTTIAKYSISWLKRFLDDDTRYQQFLCPVQPDPELSAHEATCHS [DP001] | < 25
11 | FGGGTIYYPTSTADGTFGAVVISPGFTAYESSIAWLGPRLASQGFVVFTIDTNTTLDQPDSRGRQLLAALDYLTQRSSVRTRVDATRLGVMGHSMGGGGSLEAAKSRPSLKAAIPLTGWNTDKTWPELRTPTLVVGADGDSIAPVATHSEPFYESLPGSLDKAYLELRGASHFTP [TEP045] | < 25
12 | MYYPTTTSVGTFGAVAIAPGYTARESSIAWLGPRLASQGFVVFTIDTITTQDQPSSRGDQLRAALSYVATESSVRTRVDGSRLAVMGHSMGGGGSLQAAKDDPSIRAVIPMTPYDLDKTWPEVVAPTLVIGAEDDTVAPVSRHAEPFYESLTQASEKAYLELRGASHFAPNVSNTTIASASIAWLKRHVDADTRYERFICPAPAVSLQISEYRSTC [TEP079] | < 25
13 | QTNPYERGPAPTTASLEASRGPFSISSFTVSRPSGYGAGTVYYPTNAGGTVGAIAIVPGFLARQSSINWWGPRLASHGFVVITIDTNSTLDQPASRSRQQLAALDQVAALARTSSSPIYNRVDTTRMGVMGWSMGGGGTLISAQNRPSIKAAAPQAPYNSSTNFSSVTVPTLIFACENDTVAPVNRHASPFYSSMSRNSKQYLEINGGSHSCANSGNSNQPLIGKKGVAWMKRFMDNDTRYTPFACANPNSTRVSEFRTANCS [ESM073] | < 25
14 | CESRRGPDPTRVSVESTAGPFAIATTTVSSGNGFGGGTIYYPTSTAEGRFGGVAIAPGFTKTQSSIAWYGPRLASQGFVVFTIDTNSGLDFPASRGDQLLAALDFLTSSSSVKSRVDANRLAVMGWSMGGGGALEAAKDRPALKAAIPLAGWNTTTEWSSVTVPTLVVACENDSTAPVASHSRPFYDSLTSAQERAFVEMAGAPHGCVTSPTTAVARWTISWLKRFVDGDTRYTQFLCPPPADSTVSTQLTSCPM [TEP177] | < 25
15 | ADNPYERGPAPTRASIEAPRGPYAVSQTSVSSLLVSGFGGGTIYYPTSTSDGTFGAVVVTPGFTATESSMAWLGPRLASQGFVVFTIDTLTTLDQPDSRGRQMLAALDYLTERSSARTRIDGTRLGVIGHSMGGGGTLEAAKSRPSLKAAIPLTPWNLDKTWPEVTTPTLVVGADGDTVAPVATHAKPFYSTLPSTTDRAYLELNNATHFAPNISNTTIAKYSVSWLKRFIDDDTRYEQFLCPLPEPDRDIEEYRGTCPLGG [TEP162] | < 25
16 | RSAPDAAAPRAASGNPYQRGPDPTVASIEATRGPFATAQLNVAPGNGFNGGVVSYPTDTSLGTWGALAIVPGYSALCADEEAWMGPWLSSFGFVVICVETNTRTDSADARAAELLAALNWLTTQSPVKGQIDPGRLSVLGHSAGGAGAILAAERQPSLKAMIGLAPGFPGNGLSMATDTVPTLVIGGQNDTVVTPSYLSGLYATLPGTTQSGFAQIAGADHVYYTRPNNVEMKLLIPWLKLFVDSDTRYSPFLCPALPDPSAVSIYQPKCPYTPPGGSTPPPSTSSGPPMSPAGGRPVHAVGAGKCLDVPGLSATAGTQTDIRTCDGGAGQLWTRASAGRLTVQTGGSTMCLDAAGRGASPGTKVQIWPCNGGSNQQWNVNANGTITGTQSGLCLDVTGGSTADGALVELWTCNGGSNQQWTSQ [TEP076] | < 25
17 | DEIGQAPTSSNITGNGSFSVSTYNISSLVSGFGGGVAYYPTTSGRYPVVAVSPGFTARWSSISWIGPRLASWGFVVVGIETNGLYDQPASRGSQLLAALNWAVNSAPSAITSRADGSRRGVAGHSMGGGGTLEALAADTTGNVKAGVPIAPWNSDKTWSGINEAVQIVGGESDTIASVGSHSIPFYNSVSGPKSYVELNGASHFFPQSTNSTLSRALVSWFKRYLNQDARFTPFTCGYGGTAVSDFRTNAC [ESM151] | < 25
18 | QIGPAPTSASLNATAGPLAVSTSTVTVATGFGGGTIYYPSTAGQYGVIAISPGFTATQSSVAWLGRRLATHGFVVITIDTNTTLDQPASRATQLIAALNYVVNSASSTVRSRVDPNRRAVAGHSMGGGGALIAAENNPSLKASLPLTPWNLSSSFTQVRVPTLIVGSDGDAVAPVAVHARPFYASLPGTTYKAYAELNLATHFTPNSTNTPIGRYGVTWMKRFVDADTRYSSFLCGADHQAYATALVFDRYSQNCPY [ESM116] | < 25
19 | MRSDCSPPWRWWPGAALAPAANAAAPAHPVRLAANPYERGPAPTEASITAEKGPFAIERIDVPAGSGPGFNKGTIYAPTDLSQGTFGAIAVSPGFVSPQAWIDWYGPRLATQGFVVMTLETNSLFDVPAARGEQLLAALDYMTGGSRVKDRIDASRLAVMGHSMGGGGTLEAADDRPALQAAVPLAPWNTNYDWKNVRVPTMIMGADNDAIAPADSMAESYYDNLTSVPEKAYLELKNAGHMTFNSPNTTIAKYTIAWMKRFVDDDARYERFLCPEPAPGATIAQYEGTCPTG [TEP141] | < 25
20 | APANPYERGPDPTEASVTAEKGPFTIERIDVPTGSGTGFNRGTIYAPTDTSQGTFGAIAVSPGFVSPQAWIDWYGPRLASQGFVVMTLETLNLMDVPDSRANQLLAALDYLTGKSTVKNRIDPARLAVMGHSMGGGATLRAAAERPALQAAIPLAPWHTDRDWQGVTVPTMIMGADNDFIAGVGAHAEPFYRNLTSAPEKAYLELRNAGHMSFNTPNTTIAKYGISWMKRFVDDDTRYDRFLCPAPRPGAAINEYRDTCPNG [TEP186] | < 25
